Laboratory results published in PMC10743992, “A Transient π–π or Cation–π Interaction between Degron and Degrader Dual Residues: A Key Step for the Substrate Recognition and Discrimination in the Processive Degradation of SulA by ClpYQ (HslUV) Protease in Escherichia coli” (International Journal of Molecular Sciences, 2023).
Substitutions are numbered along the chain they refer to. Names and notes keep the numbering of the source.

T1: His (6x)-tagged ClpY (Escherichia coli, UniProt P0A6H5 1-443)
T1 construct: ClpY (HslU) ATPase/unfoldase of Escherichia coli, wild type, cloned in pET21a at NdeI-HindIII; Used as the 6-oligomer (1.3 uM) with 5 mM ATP; also called His-ClpY; HslU
T1 sequence (looked up): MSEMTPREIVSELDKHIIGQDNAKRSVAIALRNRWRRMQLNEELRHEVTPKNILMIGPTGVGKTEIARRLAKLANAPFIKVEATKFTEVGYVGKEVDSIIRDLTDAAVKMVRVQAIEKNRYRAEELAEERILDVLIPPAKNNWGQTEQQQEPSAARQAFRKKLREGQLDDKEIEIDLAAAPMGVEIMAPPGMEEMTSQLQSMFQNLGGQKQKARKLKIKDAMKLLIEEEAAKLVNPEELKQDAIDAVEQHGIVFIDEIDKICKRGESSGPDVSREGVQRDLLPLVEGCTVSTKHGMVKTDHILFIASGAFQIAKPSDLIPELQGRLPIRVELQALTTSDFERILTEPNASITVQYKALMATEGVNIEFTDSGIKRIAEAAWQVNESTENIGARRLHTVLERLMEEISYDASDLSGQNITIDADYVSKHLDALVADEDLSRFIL

B1: MBP-SulA (natural protein, Escherichia coli, UniProt P0AFZ5 1-169, looked up)
chain: MYTSGYAHRSSSFSSAASKIARVSTENTTAGLISEVVYREDQPMMTQLLLLPLLQQLGQQSRWQLWLTPQQKLSREWVQASGLPLTKVMQISQLSPCHTVESMVRALRTGNYSVVIGWLADDLTEEEHAELVDAANEGNAMGFIMRPVSASSHATRQLSGLKIHSNLYH
notes: also called wild-type MBP-SulA; source: E. coli BL21 (DE3), purified (amylose resin)
B2: MBP-SulA^F143K (natural protein, Escherichia coli, UniProt P0AFZ5 1-169, looked up)
chain: B1 chain with F143K
notes: SulA of Escherichia coli with F143K, cloned in pMal-c2X at EcoRI-BamHI; source: E. coli BL21 (DE3), purified (amylose resin)
B3: MBP-SulA^F143H (natural protein, Escherichia coli, UniProt P0AFZ5 1-169, looked up)
chain: B1 chain with F143H
notes: SulA of Escherichia coli with F143H, cloned in pMal-c2X at EcoRI-BamHI; source: E. coli BL21 (DE3), purified (amylose resin)

Target: T1, His (6x)-tagged ClpY
Assay: pull-down; His-ClpY (6-oligomer, 1.3 uM) held on cobalt resin; MBP-SulA or variant 7.8 uM; 50 mM HEPES pH 7.4, 150 mM NaCl, 5% glycerol, 5 mM MgCl2, 0.04% Triton X-100, 5 mM ATP, 41 °C 3 h, then resin at 4 °C; 10 washes with 300 mM NaCl; SDS-PAGE, Coomassie
Details: both partners purified

| Binder | binding result |
| --- | --- |
| B1 | binds |
| B2 | binds |
| B3 | binds |
